Test results from patent publication US20130040994A1.

Molecular target: quenched fluorescein gelatin substrate (DQ gelatin, Invitrogen D12054)

Sequence of catalytic rat MMP9 (80 kD active MMP9) (enzyme) (P50282 108-708 limits assumed): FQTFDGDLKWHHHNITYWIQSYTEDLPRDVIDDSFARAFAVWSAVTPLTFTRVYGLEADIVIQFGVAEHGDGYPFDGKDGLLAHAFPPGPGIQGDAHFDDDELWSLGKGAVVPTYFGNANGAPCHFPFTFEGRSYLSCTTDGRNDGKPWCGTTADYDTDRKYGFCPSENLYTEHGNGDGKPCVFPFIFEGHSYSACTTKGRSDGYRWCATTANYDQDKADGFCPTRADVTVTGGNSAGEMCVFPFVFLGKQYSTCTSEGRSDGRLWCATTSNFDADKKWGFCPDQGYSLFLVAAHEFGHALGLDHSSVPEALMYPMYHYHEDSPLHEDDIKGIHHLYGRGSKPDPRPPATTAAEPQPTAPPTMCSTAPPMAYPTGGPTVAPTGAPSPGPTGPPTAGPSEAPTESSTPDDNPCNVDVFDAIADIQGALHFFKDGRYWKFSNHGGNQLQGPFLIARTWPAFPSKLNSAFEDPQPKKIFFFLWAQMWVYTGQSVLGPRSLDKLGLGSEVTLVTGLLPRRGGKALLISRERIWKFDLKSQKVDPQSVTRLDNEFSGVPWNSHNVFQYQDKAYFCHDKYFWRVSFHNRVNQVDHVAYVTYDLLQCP

gelatinase activity by in situ zymography, Intensity (RLU × 10^6), Mean: 1.09e+08 RLU
Substance: catalytic rat MMP9 (80 kD active MMP9) (enzyme)
